Source: patent US20190002562A1 (INTERVET, published 2019)
Changes are numbered by the printed parent chain.

How the values were obtained:
[1] = target: T1, recombinant human CD64 protein (R&D systems) (human, UniProt P12314 16-288); test: ELISA: antibody titrated on coated PD-1 HIS, then recombinant human CD64 at 1 ug/mL, biotinylated anti-CD64 and streptavidin-HRP
T1 construct: Bought protein; also called FcγRI; FcRγI
Description: (§1) Binding to FcRγI is a measure of the ability of an antibody to mediate ADCC. In order to assess this property for the caninized antibodies an assay to measure binding of caninized antibodies to FcγRI was conducted as follows: Coat 96-well plates with 100 μl per well of 2.5 μg/mL PD-1 HIS. Incubate at 2-7° C. overnight. Equilibrate the plates to room temp for 15 minutes. Wash plates 3× with phosphate buffered saline containing 0.05% Tween® 20 (PBST) and then block the wells using 200 μL/well of 5% NFDM (Non Fat Dried Milk). Incubate for 60 minutes at 36-38° C. Wash 3× with PBST. Make 2-fold dilution of antibodies starting at 1 μg/mL in 5% NFDM. Add 100 μL/well of diluted antibodies. Incubate for 60 minutes at 36-38° C. Wash 6× with PBST. Add 100 μL/well of recombinant human CD64 protein (R&D systems) diluted to 1 μg/mL. Incubate for 60 minutes at 36-38° C. Wash 6× with PBST. Add 100 μL/well biotinylated-anti-CD64 antibody (R&D systems) diluted to 1:3000. Incubate for 60 minutes at 36-38° C. Wash 6× with PBST. Add 100 μL/well Streptavidin-HRP antibody (R&D systems) diluted to 1:7500. Incubate for 60 minutes at 36-38° C. Wash 6× with PBST. Add 100 μL/well TMB substrate. Incubate for 10 minutes at 15-30° C. Read plates using ELISA plate reader at 450-540 nm.

[2] = target: T1, recombinant human CD64 protein (R&D …); test: ELISA: antibody captured on PD-1 HIS, recombinant human CD64 added
Description: as §1

[3] = target: T2, HIS-tagged canine PD-1 ECD protein (canine); test: ELISA on the extracellular domain of canine PD-1
T2 construct: also called PD-1 HIS; canine PD-1 ECD-HIS tagged protein; not shown: HIS tag
T2 chain: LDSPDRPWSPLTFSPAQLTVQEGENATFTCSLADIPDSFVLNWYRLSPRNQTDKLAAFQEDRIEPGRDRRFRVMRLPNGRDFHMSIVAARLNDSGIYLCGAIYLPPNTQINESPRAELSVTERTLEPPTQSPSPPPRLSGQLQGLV

canine PD-1 [4] = target: T3, canine PD-1 (canine); test: SPR (Biacore T200), canine PD-1 amine-coupled, antibody as analyte, 1:1 fit
T3 construct: also called canine PD-1 antigen; cPD-1
T3 chain: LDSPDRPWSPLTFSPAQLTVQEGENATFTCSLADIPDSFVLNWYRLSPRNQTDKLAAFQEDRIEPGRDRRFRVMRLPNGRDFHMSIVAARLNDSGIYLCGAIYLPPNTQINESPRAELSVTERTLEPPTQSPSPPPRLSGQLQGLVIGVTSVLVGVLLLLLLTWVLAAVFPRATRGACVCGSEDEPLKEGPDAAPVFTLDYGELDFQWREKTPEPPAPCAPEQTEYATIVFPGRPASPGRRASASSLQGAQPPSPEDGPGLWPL

canine PD-1 [5] = target: T3, canine PD-1; test: SPR (Biacore T200), canine PD-1 amine-coupled, antibody as analyte, 1:1 fit; off-rate below the detection limit

T1 sequence (P12314 16-288 limits assumed): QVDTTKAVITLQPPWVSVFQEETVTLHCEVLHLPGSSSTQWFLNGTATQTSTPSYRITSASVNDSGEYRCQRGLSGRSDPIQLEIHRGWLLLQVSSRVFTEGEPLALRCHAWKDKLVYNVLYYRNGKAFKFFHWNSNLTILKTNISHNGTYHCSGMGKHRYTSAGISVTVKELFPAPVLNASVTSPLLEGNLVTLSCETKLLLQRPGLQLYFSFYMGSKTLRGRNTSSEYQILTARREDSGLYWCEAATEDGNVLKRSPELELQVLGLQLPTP

B1: can2H9 VH4/VL3 IgGB (antibody)
heavy: EVQLVQSGGDLVKPGGSVRLSCVASGFNIKNTYMHWVRQAPGKGLQWIGRIAPANVDTKYAPKFQGKATISADTAKNTAYMQLNSLRAEDTAVYYCVLIYYDYDGDIDVWGQGTLVTVSSASTTAPSVFPLAPSCGSTSGSTVALACLVSGYFPEPVTVSWNSGSLTSGVHTFPSVLQSSGLYSLSSMVTVPSSRWPSETFTCNVAHPASKTKVDKPVPKRENGRVPRPPDCPKCPAPEMLGGPSVFIFPPKPKDTLLIARTPEVTCVVVDLDPEDPEVQISWFVDGKQMQTAKTQPREEQFNGTYRVVSVLPIGHQDWLKGKQFTCKVNNKALPSPIERTISKARGQAHQPSVYVLPPSREELSKNTVSLTCLIKDFFPPDIDVEWQSNGQQEPESKYRTTPPQLDEDGSYFLYSKLSVDKSRWQRGDTFICAVMHEALHNHYTQESLSHSPGK
light: DIVMTQTPLSLSVSLGEPASISCHASQNINVWLSWYRQKPGQIPQLLIYKASHLHTGVPDRFSGSGSGTDFTLRISRVEADDAGVYYCQQGQSWPLTFGQGTKVEIKRNDAQPAVYLFQPSPDQLHTGSASVVCLLNSFYPKDINVKWKVDGVIQDTGIQESVTEQDSKDSTYSLSSTLTMSSTEYLSHELYSCEITHKSLPSTLIKSFQRSECQRVD
notes: also called 2H9 VH4 IgGB/VL3; caninized 2H9 with un-modified IgGB Fc
binding result [1]: binds

B2: can2H9 ADCC (1061) VH4/VL3 (antibody)
heavy: B1 heavy with P335A
light: B1 light
notes: also called can2H9 VH4 IgGB ADCC (1061)/VL3; YZZ1061
binding result [1]: binds

B3: can2H9 ADCC mut-1 VH4/VL3 (antibody)
heavy: B1 heavy with D271A
light: B1 light
notes: also called can2H9VH4 IgGB ADCC (mut-1)/VL3; YZZ1057/Mut-1
binding result [2]: binds

B4: can2H9 ADCC mut-2 VH4/VL3 (antibody)
heavy: B1 heavy with N303A
light: B1 light
notes: also called can2H9 VH4 IgGB ADCC (mut-2)/VL3; YZZ1058/Mut-2
binding result [2]: binds

B5: can2H9 ADCC(1059) VH4/VL3 (antibody)
heavy: B1 heavy with P244A
light: B1 light
notes: also called can2H9 VH4 IgGB ADCC(1059)/VL3; YZZ1059
binding result [1]: binds

B6: can2H9 ADCC(1060) VH4/VL3 (antibody)
heavy: B1 heavy with A333G
light: B1 light
notes: also called YZZ1060
binding result [1]: binds

B7: 3B6 VH3 IgGB / VL3 (antibody, V domains shown)
VH: EVQLVQSGGDLVKPGGSVRLSCVASGYTFTTYGMSWVRQAPGKGLQWMGWINIYSGIPTYADDFKGRFTFSLDTAKNTAYLQLNSLRAEDTAVYYCTRFDGPDYWGQGTLVTVSS
VL: DIVMTQTPLSLSVSPGEPASMSCKSSQSLLNSVNQKNYLAWYRQKPGQSPQVLVYFASARVSGVPDRFIGSGSGTDFTLRISRVEADDLGVYYCQQYFSTPLTFGQGTKLELKR
notes: copies: 2 + 2
EC50 (read off the curve) [3]: ~100 pM

B8: can2H9 ADCC (1062) VH4/VL3 (antibody)
heavy: B1 heavy with D271A, N303A
light: B1 light
notes: also called YZZ1062
EC50 (read off the curve) [3]: ~300 pM | binding result [2]: no binding

B9: can 2H9 IgGB ADCC (1068) VH4/VL3 (antibody)
heavy: B1 heavy with P244A, D271A, N303A, A333G, P335A
light: B1 light
notes: also called can2H9 VH4 IgGB ADCC (1068)/VL3; YZZ1068
binding result [2]: no binding

B10: can2H9 IgGD VH4/VL3 (antibody)
heavy chain: EVQLVQSGGDLVKPGGSVRLSCVASGFNIKNTYMHWVRQAPGKGLQWIGRIAPANVDTKYAPKFQGKATISADTAKNTAYMQLNSLRAEDTAVYYCVLIYYDYDGDIDVWGQGTLVTVSSASTTAPSVFPLAPSCGSTSGSTVALACLVSGYFPEPVTVSWNSGSLTSGVHTFPSVLQSSGLYSLSSTVTVPSSRWPSETFTCNVVHPASNTKVDKPVPKESTCKCISPCPVPESLGGPSVFIFPPKPKDILRITRTPEITCVVLDLGREDPEVQISWFVDGKEVHTAKTQPREQQFNSTYRVVSVLPIEHQDWLTGKEFKCRVNHIGLPSPIERTISKARGQAHQPSVYVLPPSPKELSSSDTVTLTCLIKDFFPPEIDVEWQSNGQPEPESKYHTTAPQLDEDGSYFLYSKLSVDKSRWQQGDTFTCAVMHEALQNHYTDLSLSHSPGK
light chain: B1 light
notes: also called can2H9 VH4 IgGD/VL3
binding result [1]: no binding (tested: log(nM) about 0.83 (1 ug/mL))

B11: Murine 2H9 (antibody, V domains shown)
VH: EVQLQQSVAELVRPGASVKLSCTASGFNIKNTYMHWIKQRPEQGLEWIGRIAPANVDTKYAPKFQGKATITADTSSNTAYMQLSTLTSEDTAIYYCVLIYYDYDGDIDVWGTGTTVTVSS
VL: DIQMNQSPSSLSASLGDTITITCHASQNINVWLSWYQQRPGNIPKLLIYKASHLHTGVPSRFSGSGSGTGFTLTISSLQPEDIATYYCQQGQSWPLTFGAGTKLELK
kon (canine PD-1 [4]): 23000 M⁻¹ s⁻¹ | Kd (canine PD-1 [5]): ≤ 200 pM | koff (canine PD-1 [5]): ≤ 5e-06 s⁻¹

B12: Murine 3B6 (antibody, V domains shown)
VH: QIQLVQSGPELKKPGETVKISCKASGYTFTTYGMSWVKQAPGKGLKWMGWINIYSGIPTYADDFKGRFAFSLETSASTAYLQIDNLKNEDTATYFCARFDGPDYWGQGTTLTVSS
VL: DIVMTQSPSSLAVSVGRKVTMSCKSSQSLLNSVNQKNYLAWYQQKPGQSPKVLVYFASARVSGVPDRFIGSGSGTDFTLAISSVQAEDLTTYFCQQYFSTPLTFGAGTKLELK
Kd (canine PD-1 [4]): 2000 pM | koff (canine PD-1 [4]): 3.4e-05 s⁻¹ | kon (canine PD-1 [4]): 18000 M⁻¹ s⁻¹
